Substitutions are numbered along the chain they refer to.
T1: cynomolgus β6 on transfected HEK-293 cells (cynomolgus)
T1 chain: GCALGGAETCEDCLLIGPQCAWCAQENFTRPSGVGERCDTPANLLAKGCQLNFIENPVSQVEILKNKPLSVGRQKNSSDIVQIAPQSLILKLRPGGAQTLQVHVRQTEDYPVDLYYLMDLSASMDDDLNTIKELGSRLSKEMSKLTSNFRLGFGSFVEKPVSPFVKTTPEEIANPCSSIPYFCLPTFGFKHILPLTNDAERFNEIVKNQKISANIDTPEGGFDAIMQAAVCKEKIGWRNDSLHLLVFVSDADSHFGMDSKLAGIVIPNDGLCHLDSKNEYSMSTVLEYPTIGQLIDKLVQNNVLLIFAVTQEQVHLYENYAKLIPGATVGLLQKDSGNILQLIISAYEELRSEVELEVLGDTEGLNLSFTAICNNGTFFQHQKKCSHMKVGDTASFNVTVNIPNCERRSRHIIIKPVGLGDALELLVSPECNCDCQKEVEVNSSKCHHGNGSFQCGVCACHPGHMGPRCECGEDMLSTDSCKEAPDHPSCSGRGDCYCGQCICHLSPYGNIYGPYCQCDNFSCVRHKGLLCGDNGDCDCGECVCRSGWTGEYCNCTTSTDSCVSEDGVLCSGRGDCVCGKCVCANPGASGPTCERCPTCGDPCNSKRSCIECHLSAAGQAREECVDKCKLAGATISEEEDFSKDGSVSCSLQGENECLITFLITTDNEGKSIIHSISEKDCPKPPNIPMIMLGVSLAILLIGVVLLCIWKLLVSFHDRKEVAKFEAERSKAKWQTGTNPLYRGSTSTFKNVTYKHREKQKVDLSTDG

B1: sc 49 (antibody, V domains shown)
VH: QVQLQESGPGLVKPSQTLSLTCTVAGGSIRSGDYYWSWIRQHPGKGLEWIGNIYYSGSTYYNPSLKSRITISVATSRNQFSLKLTSVTAADTAVYYCARGGAITIFGVFDYWGQGTLVTVSS
VL: not shown
notes: Fully human XenoMouse mAb; also called sc 049
B2: sc 188 (antibody, V domains shown)
VH: QVQLQESGPGLVKPSQTLSLTCTVSGGSISSGVYYWTWIRQHPGNGLEWIGYIYYSGSTSYNPSLKSRVTISVDTSKKQFSLNLTSVTAADTAVYYCAREGPLRGDYYYGLDVWGQGTTVTVSS
VL: EIVLTQSPGTLSLSPGERATLSCRAGQTISSRYLAWYQQKPGQAPRPLIYGASSRATGIPDRFSGSGSGTDFTLTISRLEPEDFAVYYCQQYGSSPRTFGQGTKVEIK
notes: Fully human XenoMouse mAb; Has a glycosylation site (NLT) in heavy chain FR3
B3: sc 188 SDM (antibody, V domains shown)
VH: B2 VH with N83K
VL: B2 VL
B4: sc 264 (antibody, V domains shown)
VH: QVQLQESGPGLVKPSQTLSLTCTVSGGSISSGGYYWSWIRQHPGKGLEWIGYIYYSGRTYNNPSLKSRVTISVDTSKNQFSLKLSSVTAADTAVYYCARVATGRGDYHFYAMDVWGQGTTVTVSS
VL: SYELTQPSSVSVSPGQTARITCSGDVLAKKSARWFHQKPGQAPVLVIYKDSERPSGIPERFSGSSSGTTVTLTISGAQVEDEAAYYCYSAADNNLVFGGGTKLTVL
notes: Fully human XenoMouse mAb; Has RGD in heavy chain CDR3
B5: sc 264 RAD (antibody, V domains shown)
VH: B4 VH with G105A
VL: B4 VL
B6: sc 298 (antibody, V domains shown)
VH: QVQLVESGGGVVQPGRSLRLSCAASGFTFSSYGMHWVRQAPGKGLEWVAVIWYGGSNKYYADSVKGRFTISRDNSKNTLYLQMNSLRAEDTAVYYCARDLAARRGDYYYYGMDVWGQGTTVTVSS
VL: SSELTQDPVVSVALGQTVRITCQGDSLRSYYLSWYQQKPGQAPVLVIYGKNNRPSGIPDRFSGSNSGNTASLTITGAQAEDEADYYCNSRDSSGNHLFGGGTKLTVL
notes: Fully human XenoMouse mAb
B7: sc 374 (antibody, V domains shown)
VH: B6 VH with G54D, D99T, L100E, A101G, A102I, R103A, R104A, G105R, D106L
VL: not shown
notes: Fully human XenoMouse mAb
B8: sc 161 (antibody, V domains shown)
VH: EVQLVQSGAEVKKPGESLKISCKGSGYSFTSYWIGWVRQMPGKGLEWMGIIYPGDSDTRYSPSFQGQVTISADKSISTAYLQWSSLKASDTAMYYCARHGIAAAGFYYYYMDVWGQGTTVTVSS
VL: EIVLTQSPDTLSLSPGERASLSCRASQNVNRNYLVWYQQKPGQAPRLLIYGTSNRATGIPDRFSGSGSGTDFTLTISRLEPEDFAVYYCQQCGSLPFTFGPGTKVDIKR
notes: Fully human XenoMouse mAb
B9: sc 97 (antibody, V domains shown)
VH: EVQLVQSGAEVKKPGESLKISCKGSGYSFTSYWIGWVRQMPGKGLEWMGIIYPGDSDTRYSPSFQGQVILSADKSISTAYLQWSSLKASDTAMYYCARHDESSGYYYVFDIWGQGTMVTVSS
VL: SYELTQPPSVSVSPGQTARITCSGDALPKKYAYWYQQKSGQAPVLVIYEDIKRPSGIPERFSGSSSGTMATLTISGAQVEDEADYYCYSTDSSGNHWVFFGGGTKLTVL
notes: Fully human XenoMouse mAb; also called sc 097
B10: sc 133 (antibody, V domains shown)
VH: QVQLVQSGAEVKKPGASVKVSCKASGYTFTGYYMHWVRQAPGQGLEWMGWINPKSGDTNYAQKFQGRVTLTRDTSTSTAYMELSRLRSDDTAVYYCARRLDVWGQGTTVTVSS
VL: QSVLTQPPSVSAAPGQKVTISCSGSSSNIGNNYVSWYQQLPGTAPKLLIYDNNKRPSGIPDRFSGSKSGTSATLGITGLQTGDEADYYCGTWNSSLSAGYVFGTGTKVTV
notes: Fully human XenoMouse mAb
B11: sc 320 (antibody, V domains shown)
VH: EVQLVESGGGLVKPGGSLRLSCAASGYTFTNYIMHWVRQAPGKGLEWVSSISISSSYIYYADSVKGRFTISRDNAKNSLYLQMNSLRAEDTAVYYCARDPVPLERRDYYYGMDVWGQGTTVTVSS
VL: QSVLTQPPSMSAAPGQKVTISCSGSSSNIGNNYVSWYQQLPGTAPKLLIYDNNKRPSGIPDRFSGSKSGTSATLGITGLQTGDEADYYCGTWDSSLSAGVFGGGTKLTVL
notes: Fully human XenoMouse mAb
B12: sc 277 (antibody, V domains shown)
VH: EVQLVQSGAEVKKPGESLKISCKGSGYSFPSYWIGWVRQMPGKGLEWMGIIYPGDSDTRYSPSFQGQVTISADKSISTAYLQWSSLKASDTAMYYCARHPMEDGMDVWGQGTTVTVSS
VL: SYELTQPPSVSVSPGQTARITCSGDALPKKYAFWYQQKSGQAPVLVIYDDNKRPSGIPERFSGSSSGTMATLTITGAQVEDEADYYCYSTDSSGHHVFGGGTKLTVL
notes: Fully human XenoMouse mAb
B13: sc 254 (antibody, V domains shown)
VH: QVQLQESGPGLVKPSQTLSLTCTVSGGSISSGGYYWSWIRQHPGKGLEWIGYIYYSGSTYYNPSLKSRVTISVDTSKNQFSLKLSSVTAADTAMYYCARYRGPAAGRGDFYYFGMDVWGQGTTVTVSS
VL: DIVMTQTPLSLSVTPGQPASIFCKSSQSLLNSDGKTYLCWYLQKPGQPPQLLIYEVSNRFSGVPDRFSGSGSGTDFTLKISRVEAEDVGVYYCMQGIQLPWAFFGQGTKVEIK
notes: Fully human XenoMouse mAb
B14: sc 58 (antibody, V domains shown)
VH: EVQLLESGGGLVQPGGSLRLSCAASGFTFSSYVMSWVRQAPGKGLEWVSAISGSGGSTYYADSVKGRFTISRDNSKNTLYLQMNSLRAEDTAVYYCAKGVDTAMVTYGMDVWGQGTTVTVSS
VL: SYELTQPPSVSVSPGQTARITCSGDALPKKYAYWYQQKSGQAPVLVIYDDSKRPSGIPERFSGSSSGTMATLTISGAQVEDEADYYCYSTDSSGNHRVFGGGTKLTVL
notes: Fully human XenoMouse mAb; also called sc 058

Columns and labels:
cynomolgus αVβ6 on cells [1] = target: T2, cynomolgus αVβ6 on cells (cynomolgus); test: FACS, supernatant, HEK-293 cells transfected with cynomolgus αV and β6
T2 construct: whole, on cells; also called macaque αVβ6; Mac AVB6
Procedure: The assays were performed as follows. […] The cells were then pelleted, the supernatant discarded, and resuspended in FACS buffer and incubated for 30 minutes at 37° C. Cells were then washed twice with FACS buffer and resuspended in a final volume of 100 μL FACS buffer per well.
HEK-293 cells were transiently transfected with cynomolgus αV and cynomolgus β6. After 48 hours, the cells were collected and resuspended in FACS buffer to reach a final concentration of approximately 50,000 cells in 100 μL.
Approximately 100,000 cells total, comprising a 50:50 mix of CFSE-labeled A375M cells and transfected 293 cells, were used in each reaction as follows. 100 μL of CFSE-labeled A375M cells and 100 μL of 293 cells were dispensed into a V-bottom plate. The cells in the plate were pelleted at 1500 rpm for 3 minutes, and then resuspended in 100 μL FACS buffer. The pelleting step was repeated, and the FACS buffer supernatant was removed. The harvested antibody-containing supernatants, or control primary antibodies were added in a volume of 50 μL and the cells were resuspended. […] The plate was incubated on ice for 45 minutes, after which 100 μL FACS buffer was added to dilute the primary antibody. The cells were then pelleted by centrifuging at 1500 rpm for 3 minutes, and the pellet was resuspended in 100 μL FACS buffer. The pelleting step was repeated, and the FACS buffer supernatant was removed. Cells were then resuspended in the appropriate secondary antibody (5 μg/ml) with 7AAD dye (10 μg/ml), and stained on ice for 7 minutes. Then 150 μL of FACS buffer was added and the cells were pelLeted at 1500 rpm for 3 minutes, after which the cells were washed in 100 μL FACS buffer, pelleted, and then resuspended in 250 μL buffer and added to FACS tubes. Samples were analyzed on a high throughput FACS machine and analyzed using Cell Quest Pro software.

soluble αVβ6 = target: T3, soluble αVβ6 (human, UniProt P06756 31-992; P18564 22-709); test: competition ELISA: soluble αVβ6 (250 ng/ml) pre-incubated with the mAb, then binding to plate-coated GST-LAP, bound αVβ6 detected with mAb 2075
T3 construct: extracellular domain; also called soluble antigen; soluble αVβ6 protein
T3 sequence (P06756 31-992, one chain of several): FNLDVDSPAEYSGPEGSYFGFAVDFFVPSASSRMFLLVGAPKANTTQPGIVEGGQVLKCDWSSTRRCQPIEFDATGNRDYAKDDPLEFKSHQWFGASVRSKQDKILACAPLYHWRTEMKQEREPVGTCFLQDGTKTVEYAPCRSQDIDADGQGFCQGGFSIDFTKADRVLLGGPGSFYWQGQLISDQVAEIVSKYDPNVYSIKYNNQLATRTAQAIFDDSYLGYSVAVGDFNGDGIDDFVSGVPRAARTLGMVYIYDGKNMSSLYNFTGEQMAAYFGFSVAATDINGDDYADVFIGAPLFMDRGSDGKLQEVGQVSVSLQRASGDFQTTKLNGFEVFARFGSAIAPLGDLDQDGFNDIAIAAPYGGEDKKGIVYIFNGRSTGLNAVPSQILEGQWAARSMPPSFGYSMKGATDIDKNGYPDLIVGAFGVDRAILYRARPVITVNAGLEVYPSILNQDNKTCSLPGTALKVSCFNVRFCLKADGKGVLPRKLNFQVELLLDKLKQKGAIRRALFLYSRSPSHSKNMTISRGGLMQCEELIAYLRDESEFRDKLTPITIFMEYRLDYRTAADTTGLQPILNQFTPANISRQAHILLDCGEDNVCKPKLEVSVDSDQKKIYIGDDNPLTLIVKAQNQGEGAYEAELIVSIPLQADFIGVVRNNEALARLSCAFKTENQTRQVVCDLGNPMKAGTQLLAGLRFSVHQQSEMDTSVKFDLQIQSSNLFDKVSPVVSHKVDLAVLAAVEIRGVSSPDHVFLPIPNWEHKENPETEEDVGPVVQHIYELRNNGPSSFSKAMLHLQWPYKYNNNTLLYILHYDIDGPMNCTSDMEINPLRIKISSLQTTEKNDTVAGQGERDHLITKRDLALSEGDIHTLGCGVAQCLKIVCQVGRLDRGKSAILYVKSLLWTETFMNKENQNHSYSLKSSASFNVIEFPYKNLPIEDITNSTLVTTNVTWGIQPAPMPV
Procedure: The wells were then washed three times using 300 μL/well of assay diluent. […] The wells were then washed three times using 300 μL/well of assay diluent, and incubated with goat anti-mouse IgG Fc-peroxidase at 400 ng/ml in assay diluent (50 μL/well) for one hour at room temperature. The wells were then washed three times using 300 μL/well of assay diluent, and developed using 1-step TMB (Neogen) at a total volume of 50 μL/well. After 15 minutes, the developing reaction was quenched with 50 μL/well of 1N Hydrochloric acid.

[2] = target: T4, human αVβ6 integrin on cells (human, UniProt P06756 31-1048; P18564 22-788); test: FACS titration on K562 cells stably expressing human αVβ6, Cy5 goat anti-human detection, averaged geometric mean fluorescence
T4 construct: whole, on cells; also called alphaVbeta6
T4 sequence (P06756 31-1048, one chain of several): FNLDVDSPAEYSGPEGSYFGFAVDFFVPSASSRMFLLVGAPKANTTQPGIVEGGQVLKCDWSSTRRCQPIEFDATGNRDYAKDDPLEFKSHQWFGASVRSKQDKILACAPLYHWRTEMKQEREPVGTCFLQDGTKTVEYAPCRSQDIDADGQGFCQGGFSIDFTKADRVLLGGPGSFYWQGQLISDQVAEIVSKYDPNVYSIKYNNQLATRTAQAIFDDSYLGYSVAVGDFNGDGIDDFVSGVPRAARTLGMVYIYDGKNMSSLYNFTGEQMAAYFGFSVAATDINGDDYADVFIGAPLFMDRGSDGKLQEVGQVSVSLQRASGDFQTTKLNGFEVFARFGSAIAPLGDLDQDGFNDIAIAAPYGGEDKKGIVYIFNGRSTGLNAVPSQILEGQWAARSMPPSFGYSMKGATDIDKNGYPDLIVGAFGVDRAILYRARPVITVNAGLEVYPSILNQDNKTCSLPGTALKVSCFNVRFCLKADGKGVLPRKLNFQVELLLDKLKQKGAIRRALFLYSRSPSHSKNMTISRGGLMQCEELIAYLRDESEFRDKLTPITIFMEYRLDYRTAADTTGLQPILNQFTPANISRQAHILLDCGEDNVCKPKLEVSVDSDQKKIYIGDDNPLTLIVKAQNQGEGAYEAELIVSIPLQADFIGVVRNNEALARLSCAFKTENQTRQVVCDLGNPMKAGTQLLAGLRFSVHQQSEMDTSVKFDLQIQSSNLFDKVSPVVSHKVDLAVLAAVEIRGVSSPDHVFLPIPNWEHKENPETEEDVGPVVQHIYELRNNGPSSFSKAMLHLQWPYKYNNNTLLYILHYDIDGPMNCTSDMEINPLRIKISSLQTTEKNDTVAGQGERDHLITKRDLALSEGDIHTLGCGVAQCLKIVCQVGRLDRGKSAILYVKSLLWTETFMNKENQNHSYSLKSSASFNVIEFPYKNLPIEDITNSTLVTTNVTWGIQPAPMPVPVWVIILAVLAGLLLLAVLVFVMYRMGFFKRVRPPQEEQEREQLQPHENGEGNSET
Procedure: K562 cells expressing αVβ6 were resuspended in filtered HBS buffer containing 1 mM of MgCl₂ and 1 mM of CaCl₂ at a concentration of approximately 6 million cells/mL. The cells were kept on ice. […] The 12th well in each row contained buffer only. Titrations were done in triplicate. Additional HBS and cells were added to each well so that the final volume was 300 μL/well and each well contained approximately 120,000 cells. […] The plates were then shaken for 40 minutes at 4° C., and thereafter were spun and washed once again three times with HBS. The Geometric Mean Fluorescence (GMF) of 20,000 “events” for each mAb concentration was recorded using a FACSCalibur instrument, and the corresponding triplicate titration points were averaged to give one GMF point for each mAb concentration. A plot of the averaged GMF as a function of molecular mAb concentration with Scientist software was fit nonlinearly using the equation:

[3] = target: T4, human αVβ6 integrin on cells; test: FACS, 293T-αVβ6 cells, 1.25 ug/ml
Procedure: (§1) Cells were divided between reactions in a V-bottom 96-well plate (Sarstedt), and the cells in the plate were pelleted at 1500 rpm for 3 minutes, after which the HBSS supernatant was removed. The primary antibody was added at the concentration indicated in Table 19 in a volume of 50 μL, and the cells were resuspended and thereafter incubated on ice for 60 minutes. After incubation, the cells were pelleted by centrifugation at 1500 rpm for 3 minutes, resuspended in 100 μL wash buffer, and then pelleted again. Cells were then resuspended in the appropriate secondary antibody at 2 μg/ml with 10 μg/ml 7AAD, and stained on ice for 7 minutes, after which 150 μL of wash buffer was added, and cells were pelleted at 1500 rpm for 3 minutes and then resuspended in 100 μL of HBSS with 1% BSA. Samples were read on a FACS machine with a HTS attachment and the data was analyzed using Cell Quest Pro software.

[4] = target: T4, human αVβ6 integrin on cells; test: FACS, 293T-αVβ6 cells, 5 ug/ml
Procedure: as §1

[5] = target: T4, human αVβ6 integrin on cells; test: FACS, 293T-αVβ6 cells, 20 ug/ml
Procedure: as §1

[6] = target: T4, human αVβ6 integrin on cells; test: FACS titration on K562 cells stably expressing human αVβ6, done as in Example 18, averaged geometric mean fluorescence
cynomolgus αVβ6 on cells [7] = target: T2, cynomolgus αVβ6 on cells; test: FACS, purified mAb, transiently transfected HEK-293 cells (parental cells 49)
Procedure: (§2) Cross-reactivity of the mAbs to macaque and mouse αVβ6 was tested on the purified mAbs using FACS analysis on HEK-293 cells transiently transfected with cynomolgus or mouse αV, β6, or αVβ6. Approximately 48 hours after transfection, the cells were collected and resuspended in FACS buffer to reach a final concentration of approximately 50,000 cells in 100 μL.
(§3) Approximately 100,000 cells total, were used in each reaction as follows. 200 μL of 293 cells were dispensed into a V-bottom plate. The cells in the plate were pelleted at 1500 rpm for 3 minutes, and then resuspended in 100 μL FACS buffer. The pelleting step was repeated, and the FACS buffer supernatant was removed. The purified mAbs, or control primary antibodies were added in a volume of 50 μL and the cells were resuspended. […] The plate was incubated on ice for 45 minutes, after which 100 μL FACS buffer was added to dilute the primary antibody. The cells were then pelleted by centrifuging at 1500 rpm for 3 minutes, and the pellet was resuspended in 100 μL FACS buffer. The pelleting step was repeated, and the FACS buffer supernatant was removed. Cells were then resuspended in the appropriate secondary antibody (5 μg/ml) with 7AAD dye (10 μg/ml), and stained on ice for 7 minutes. Then 150 μL of FACS buffer was added and the cells were pelleted at 1500 rpm for 3 minutes, after which the cells were washed in 100 μL FACS buffer, pelleted, and then resuspended in 250 μL buffer and added to FACS tubes. Samples were analyzed on a high throughput FACS machine and analyzed using Cell Quest Pro software.

mouse αVβ6 on cells = target: T5, mouse αVβ6 on cells (mouse, UniProt P43406 31-1044; Q9Z0T9 22-787); test: as above
T5 construct: whole, on cells; also called Mouse alphaVbeta6
T5 sequence (P43406 31-1044, chain 1 of 2): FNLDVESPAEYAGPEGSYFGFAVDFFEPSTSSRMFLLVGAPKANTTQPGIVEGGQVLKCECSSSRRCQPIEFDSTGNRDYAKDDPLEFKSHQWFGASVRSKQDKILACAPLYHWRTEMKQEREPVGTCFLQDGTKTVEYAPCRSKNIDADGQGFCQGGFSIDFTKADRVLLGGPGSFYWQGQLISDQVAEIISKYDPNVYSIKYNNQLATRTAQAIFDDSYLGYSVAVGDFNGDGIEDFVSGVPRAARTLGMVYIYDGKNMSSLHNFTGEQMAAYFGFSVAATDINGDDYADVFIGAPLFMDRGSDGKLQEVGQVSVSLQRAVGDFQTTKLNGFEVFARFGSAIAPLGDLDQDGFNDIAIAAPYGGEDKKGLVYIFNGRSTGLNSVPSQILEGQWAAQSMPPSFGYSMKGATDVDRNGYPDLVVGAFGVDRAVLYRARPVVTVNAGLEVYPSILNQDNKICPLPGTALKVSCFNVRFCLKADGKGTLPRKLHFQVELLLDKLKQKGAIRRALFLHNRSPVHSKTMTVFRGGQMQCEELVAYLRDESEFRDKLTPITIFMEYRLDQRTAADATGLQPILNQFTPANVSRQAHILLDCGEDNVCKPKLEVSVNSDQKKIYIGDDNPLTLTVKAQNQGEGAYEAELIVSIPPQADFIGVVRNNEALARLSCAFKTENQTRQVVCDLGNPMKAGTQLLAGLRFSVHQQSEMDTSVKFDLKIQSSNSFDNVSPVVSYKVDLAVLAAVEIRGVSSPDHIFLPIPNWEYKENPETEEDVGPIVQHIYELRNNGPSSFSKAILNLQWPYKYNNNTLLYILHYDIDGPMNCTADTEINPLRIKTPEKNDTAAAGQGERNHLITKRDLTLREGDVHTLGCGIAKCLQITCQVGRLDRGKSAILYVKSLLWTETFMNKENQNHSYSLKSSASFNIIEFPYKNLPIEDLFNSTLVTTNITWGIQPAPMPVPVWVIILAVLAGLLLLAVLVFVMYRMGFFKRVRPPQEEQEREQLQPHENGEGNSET
T5 sequence (Q9Z0T9 22-787, chain 2 of 2): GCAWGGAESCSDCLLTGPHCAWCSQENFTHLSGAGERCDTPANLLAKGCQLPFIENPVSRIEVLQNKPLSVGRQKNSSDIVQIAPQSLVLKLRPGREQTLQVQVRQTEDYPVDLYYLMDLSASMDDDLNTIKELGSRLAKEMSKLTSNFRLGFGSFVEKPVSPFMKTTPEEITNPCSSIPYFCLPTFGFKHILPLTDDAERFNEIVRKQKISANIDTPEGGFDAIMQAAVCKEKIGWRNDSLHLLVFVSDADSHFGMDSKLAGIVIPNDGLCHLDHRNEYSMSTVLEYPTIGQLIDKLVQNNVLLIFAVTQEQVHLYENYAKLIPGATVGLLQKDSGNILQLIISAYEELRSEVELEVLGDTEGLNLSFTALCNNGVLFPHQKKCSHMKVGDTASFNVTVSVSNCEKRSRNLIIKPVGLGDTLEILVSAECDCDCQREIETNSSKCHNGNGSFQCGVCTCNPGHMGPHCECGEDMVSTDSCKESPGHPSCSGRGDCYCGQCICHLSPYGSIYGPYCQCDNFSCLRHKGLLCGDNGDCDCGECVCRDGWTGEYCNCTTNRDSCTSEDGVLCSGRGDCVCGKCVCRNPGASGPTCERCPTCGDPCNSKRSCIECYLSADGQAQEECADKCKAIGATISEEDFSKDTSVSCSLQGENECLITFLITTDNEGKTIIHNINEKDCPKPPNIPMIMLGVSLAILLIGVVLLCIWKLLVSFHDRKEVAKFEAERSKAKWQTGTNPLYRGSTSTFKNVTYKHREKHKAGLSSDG
Procedure: as §2, §3

[8] = target: T6, cynomolgus αV on transfected HEK-293 cells (cynomolgus, UniProt A0A2K5WCD3 31-1048); test: as above
T6 construct: Chain transfected alone; also called Cynomolgus alphaV
T6 sequence (A0A2K5WCD3 entry or part of it limits assumed): as the sequence (P06756 31-1048, one chain of several) above, with M118L, L264I, E270D, R562W, S609F, N660S, V753I, T840A counted along it
Procedure: as §2, §3

cynomolgus αVβ6 on cells [9] = target: T2, cynomolgus αVβ6 on cells; test: FACS, purified mAb, transiently transfected HEK-293 cells
Procedure: as §2, §3

[10] = target: T1, cynomolgus β6 on transfected HEK-293 …; test: as above
Procedure: as §2, §3

[11] = target: T6, cynomolgus αV on transfected HEK-293 …; test: as above
Procedure: as §2, §3

Binder | Mac AVB6 % Cells Shifted (cynomolgus αVβ6 on cells [1]) [%] | Mac AVB6 GeoMean (cynomolgus αVβ6 on cells [1]) | also measured
B1 | 23 | 30.2 | 
B2 |  | 23.9 | IC50 (read off the curve) (soluble αVβ6): ~0.2 µg/mL; EC50 (read off the curve) [2]: ~0.06 nM
B3 |  |  | Geometric Mean Shift [3]: 4530 arbitrary units; Geometric Mean Shift [4]: 6820 arbitrary units; Geometric Mean Shift [5]: 6760 arbitrary units
B4 | 55 | 66.4 | 
B5 |  |  | Geometric Mean Shift [3]: 4890 arbitrary units; Geometric Mean Shift [4]: 6840 arbitrary units; Geometric Mean Shift [5]: 7240 arbitrary units; EC50 (read off the curve) [6]: ~0.08 nM
B6 | 53 | 63.1 | IC50 (read off the curve) (soluble αVβ6): ~0.2 µg/mL; percent of cells shifted (cynomolgus αVβ6 on cells [7]): 38%; percent of cells shifted (mouse αVβ6 on cells): 53%; percent of cells shifted [8]: 48%
B7 |  | 61.8 | 
B8 | 14 | 33 | 
B9 | 35 | 37 | 
B10 | 32 | 35.2 | percent of cells shifted (cynomolgus αVβ6 on cells [9]): 28%; percent of cells shifted [10]: 10%; percent of cells shifted [11]: 5%
B11 | 19 | 33.5 | 
B12 | 35 | 33.4 | 
B13 |  | 78.5 | IC50 (read off the curve) (soluble αVβ6): ~0.3 µg/mL
B14 | 25 | 22.8 | 

Reference: patent publication US20150166663A1 (AstraZeneca / MedImmune, published 2015)
